Data as given in article doi:10.1101/844829.

Tests used:
[1] = target: Rhodamine-labeled GMPCPP-stabilized microtubules from porcine tubulin (10 % rhodamine-labeled tubulin) (porcine) (UniProt P02550); test: single-molecule TIRF microscopy
[2] = target: GMPCPP-stabilized microtubules polymerized from porcine tubulin (porcine) (UniProt P02550); test: optical tweezers with 2D force clamp

mean end residence time at the microtubule plus end (no load) [1]: 80 s
mean run time on the microtubule (no load) [1]: 150 s
end residence time at the microtubule plus end (sideward load 0.5 pN) [2]: 33 s
end residence time extrapolated to zero load from the high-assisting-load data [2]: 17 s
mean end residence time at the microtubule plus end (without load) [2]: 64 s
Substance: Full-length budding yeast Kip3 (Kip3-eGFP-His6) (from UniProt P53086 1-805) (natural protein)
